{"source": "patent US20070166779", "proteins": {"B1": {"name": "human chymase (protein)", "chain": "IIGGTECKPHSRPYMAYLEIVTSNGPSKFCGGFLIRRNFVLTAAHCAGRSITVTLGAHNITEEEDTWQKLEVIKQFRHPKYNTSTLHHDIMLLKLKEKASLTLAVGTLPFPSQFNFVPPGRMCRVAGWGRTGVLKPGSDTLQEVKLRLMDPQACSHFRDFDHNLQLCVGNPRKTKSAFKGDSGGPLLCAGVAQGIVSYGRSDAKPPAVFTRISHYRPWINQILQAN"}, "B2": {"name": "elastase (protein)", "chain": "IVGGRRARPHAWPFMVSLQLRGGHFCGATLIAPNFVMSAAHCVANVNVRAVRVVLGAHNLSRREPTRQVFAVQRIFENGYDPVNLLNDIVILQLNGSATINANVQVAQLPAQGRRLGNGVQCLAMGWGLLGRNRGIASVLQELNVTVVTSLCRRSNVCTLVRGRQAGVCFGDSGSPLVCNGLIHGIASFVRGGCASGLYPDAFAPVAQFVNWIDSIIQ"}, "B3": {"name": "proteinase 3 (protein)", "chain": "IVGGHEAQPHSRPYMASLQMRGNPGSHFCGGTLIHPSFVLTAAHCLRDIPQRLVNVVLGAHNVRTQEPTQQHFSVAQVFLNNYDAENKLNDVLLIQLSSPANLSASVATVQLPQQDQPVPHGTQCLAMGWGRVGAHDPPAQVLQELNVTVVTFFCRPHNICTFVPRRKAGICFGDSGGPLICDGIIQGIDSFVIWGCATRLFPDFFTRVALYVDWIRSTLR"}, "B4": {"name": "cathepsin G (protein)", "chain": "IIGGRESRPHSRPYMAYLQIQSPAGQSRCGGFLVREDFVLTAAHCWGSNINVTLGAHNIQRRENTQQHITARRAIRHPQYNQRTIQNDIMLLQLSRRVRRNRNVNPVALPRAQEGLRPGTLCTVAGWGRVSMRRGTDTLREVQLRVQRDRQCLRIFGSYDPRRQICVGDRRERKAAFKGDSGGPLLCNNVAHGIVSYGKSSGVPPEVFTRVSSFLPWIRTTMRS"}}, "key": {"[1]": {"target": "T1, SLPI present in human saliva", "T1 chain": "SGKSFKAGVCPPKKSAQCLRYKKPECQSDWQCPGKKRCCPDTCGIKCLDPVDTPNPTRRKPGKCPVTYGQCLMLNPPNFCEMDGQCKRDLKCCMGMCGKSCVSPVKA"}, "recombinant human SLPI": {"target": "T2, recombinant human SLPI", "T2 chain": "T1 chain"}}, "data": [{"protein": "B1", "values": [{"measurement": "cleavage of SLPI in human saliva, Western analysis", "setting": "[1]", "result": "exogenous chymase cleaved SLPI in the saliva sample as it did with the rSLPI"}, {"measurement": "cleavage of rSLPI at ten-fold excess of rSLPI (data not shown)", "setting": "recombinant human SLPI", "result": "Even in a ten-fold excess of rSLPI to chymase most of the rSLPI protein was cleaved"}, {"measurement": "cleavage of rSLPI, LC/MS (second peak with additional 18 mass units)", "setting": "recombinant human SLPI", "result": "the presence of the second peak indicated that chymase indeed cleaved rSLPI"}, {"measurement": "cleavage of rSLPI, SDS-PAGE with Coomassie stain (rSLPI:chymase molar ratio 40:1, 37 C)", "setting": "recombinant human SLPI", "result": "cleavage of recombinant human SLPI was observed after rSLPI was incubated with human chymase for about 20 minutes"}]}, {"protein": "B2", "values": [{"measurement": "cleavage of SLPI in human saliva, Western analysis", "setting": "[1]", "result": "Minor digestion of SLPI was observed after the saliva was incubated with elastase"}, {"measurement": "cleavage of rSLPI, LC/MS (1 ug rSLPI, 50 ng protease, 5 hours)", "setting": "recombinant human SLPI", "result": "did not result in the formation of the second peak"}, {"measurement": "cleavage of the reduced form of rSLPI", "setting": "recombinant human SLPI", "result": "Reduction of the rSLPI samples in the presence of the proteases did result in cleavage of the SLPI protein"}]}, {"protein": "B3", "values": [{"measurement": "cleavage of SLPI in human saliva, Western analysis", "setting": "[1]", "result": "The larger SLPI cleavage product was not observed when the saliva samples were incubated with cathepsin G, tryptase and proteinase 3"}, {"measurement": "cleavage of rSLPI, LC/MS (1 ug rSLPI, 50 ng protease, 5 hours)", "setting": "recombinant human SLPI", "result": "did not result in the formation of the second peak"}, {"measurement": "cleavage of the reduced form of rSLPI", "setting": "recombinant human SLPI", "result": "Reduction of the rSLPI samples in the presence of the proteases did result in cleavage of the SLPI protein"}]}, {"protein": "B4", "values": [{"measurement": "cleavage of SLPI in human saliva, Western analysis", "setting": "[1]", "result": "The larger SLPI cleavage product was not observed when the saliva samples were incubated with cathepsin G, tryptase and proteinase 3"}, {"measurement": "cleavage of rSLPI, LC/MS (1 ug rSLPI, 50 ng protease, 5 hours)", "setting": "recombinant human SLPI", "result": "did not result in the formation of the second peak"}, {"measurement": "cleavage of the reduced form of rSLPI", "setting": "recombinant human SLPI", "result": "Reduction of the rSLPI samples in the presence of the proteases did result in cleavage of the SLPI protein"}]}]}
